Test results: patent US20230312682A1 (published 2023)

Assays:
[1] = molecular target: T1, CD47 on the surfaces of cells (human, UniProt Q08722 19-323); assay: cell-based or functional assay
[2] = molecular target: T1, CD47 on the surfaces of cells; assay: cell-based or functional assay; remark: listed apart in the source
[3] = molecular target: T1, CD47 on the surfaces of cells; assay: flow cytometry on Daudi cells, FITC anti-human Fc
Description: The binding capacity of the prepared SIRP-Fc-IgG1 mutants to CD47 on the surfaces of Daudi cells (human lymphoma cells) was determined by flow cytometry. Experimental procedure: After being counted, Daudi cells were inoculated into a 96-well round-bottom culture plate at 2E5 cells/150 μL by using a PBS solution containing 1% bovine serum albumin (BSA). To the 96-well plate described above were added 50 μL of SIRPα-Fc fusion protein mutants serially diluted with the PBS solution. The plate was incubated at room temperature for 1 h and then centrifuged, and the supernatant was discarded. Then the cells were washed twice with PBS. An FITC-labeled goat anti-human (Fc-Specific) antibody (1:1000 diluted with PBS containing 1% BSA) was added. The plate was incubated at room temperature for half an hour and centrifuged, and the cells were washed and then tested for mean fluorescence intensity (MFI) in the FITC channel on a flow cytometer (CytoFLEX Cytometer System, purchased from Beckman Coulter). The experimental data were processed using the software provided with the flow cytometer, and the mean fluorescence intensity was calculated. The data were analyzed and plotted in GraphPad Prism 6, and EC₅₀ was calculated.

CD47-His [4] = molecular target: T2, CD47-His (human, UniProt Q08722 19-139); assay: ELISA, plate coated with CD47-His, anti-human Fc-HRP detection
T2 construct: also called Human CD47-His; SIRPα-Fc fusion protein's ligand CD47-His
Description: Method: Human CD47-His prepared in Example 1.3 was diluted to 100 ng/mL with a sodium carbonate buffer, and then the dilution was added to a microplate at 100 μL per well. The plate was incubated at room temperature for 2 h and washed with PBST. The plate was blocked by adding PBST containing 1% bovine serum albumin (BSA) to each well and incubated at room temperature for 1 h. The plate was washed twice with PBST, and serially diluted antibodies or fusion proteins were added. The plate was incubated for half an hour and washed twice with PBST. A properly diluted HRP-labeled goat anti-human (Fc-Specific) secondary antibody was added, and the plate was incubated for half an hour. After the plate was washed, a color developing solution was added for color development, and the color development was terminated with a stop solution. The OD450 was read using on a microplate reader. The data were analyzed in GraphPad Prism 6 and plotted, and EC₅₀ was calculated.

CD47-His [5] = molecular target: T2, CD47-His; assay: SPR (Biacore 8K), captured on Protein A chip, CD47-His as analyte
Description: Biacore is a method commonly used for molecular interaction analysis based on the principle of surface plasmon resonance (SPR for short). Here, Biacore was used to determine the affinity of the SIRP mutants described above and anti-CD47 antibodies for the extracellular end of CD47. Experimental method and procedure: The SIRP mutant or anti-CD47 antibodies were diluted to a concentration of 1 μg/mL with HBS-EP⁺ buffer (pH 7.4, purchased from Cytiva, catalog No. BR-1006-69). […] A 6 M solution of guanidine hydrochloride was used as a regeneration buffer. Sensor Chip Protein A (purchased from Cytiva, catalog No. 29-1275-55) was used to capture antibody on Biacore 8K (purchased from GE Healthcare). Then CD47-His was used as an analyte and allowed to flow over the chip, and an association-dissociation curve was obtained. After the chip was regenerated with the regeneration buffer, another cycle was carried out. The data were analyzed using Biacore 8K Evaluation Software.

ADCP of Daudi cells by human macrophages, EC50 [1]: 0.019 nM | ADCP of Daudi cells by human macrophages, Top (highest degree of ADCP by curve fitting) [1]: 12.5 | ADCC on Daudi cells with human PBMCs, EC50 [2]: 0.197 nM | ADCC on Daudi cells with human PBMCs, Top (highest degree of ADCC by curve fitting) [2]: 29 | EC50 [3]: 0.189 nM | height of top plateau [3]: 3070 MFI | EC50 (CD47-His [4]): 0.0558 nM | height of top plateau (CD47-His [4]): 0.795 OD450 | Kd (CD47-His [5]): 0.104 nM | koff (CD47-His [5]): 0.00012 s⁻¹ | kon (CD47-His [5]): 1.16e+06 M⁻¹ s⁻¹
B1: anti-CD47B-Hu-IgG1 (antibody, V domains shown)
VH: QVQLVQSGAEVKKPGASVKVSCKASGYTFANHVIHWVRQAPGQGLEWMGYIYPYNDGTKYNEKFKDRVTLTSDKSTSTVYMELSSLRSEDTAVYYCARGGYYTYDDWGQGTLVTVSS
VL: DVVMTQSPLSLPVTLGQPASISCRSSQSLVHSNGKTYLHWYQQRPGQSPRLLIYKVSNRFSGVPDRFSGSGSGTDFTLKISRVEAEDVGVYYCSQSTHVPYTFGQGTKVEIKR
notes: Human IgG1 / kappa
